Assay results: paper PMC5027511

Target: E. coli RNAP core with βG1249D (α2, His6-tagged βG1249D, β’, ω) (E. coli) (UniProt P0A7Z4)
Assay: cross-linking; photo-crosslinking from BpA at σ 581; σD581BpA incubated with or without AsiA 10 min at 37°C, then with core 10 min at 37°C; UV 30 min at room temperature; SDS-PAGE with Coomassie stain; crosslinked band digested with trypsin and read by MALDI-TOF; the species was seen only with AsiA present

Question: With “AsiA/σD581BpA complex (from UniProt P00579 1-613; P32267 1-90)” as the substance, how does the fold less of the σD581BpA-β’ crosslinked product than with wt core read?
Answer: The fold less of the σD581BpA-β’ crosslinked product than with wt core was 4 fold.
